Where “and” joins values, the source holds several entries; their conditions need not be identical. Identical values can stand only once.
Experiments:
[1] = biological target: T1, mouse EP3 with Cycle 3 GFP at the C-terminus, on 293FT cells (mouse, UniProt P30557 1-365); test: flow cytometry on 293FT cells transiently expressing EP-GFP
T1 construct: whole, on cells; also called mEP3; pcDNA-DEST47-mEP3; not shown: Cycle 3 GFP from the pcDNA-DEST47 vector
T1 sequence (looked up): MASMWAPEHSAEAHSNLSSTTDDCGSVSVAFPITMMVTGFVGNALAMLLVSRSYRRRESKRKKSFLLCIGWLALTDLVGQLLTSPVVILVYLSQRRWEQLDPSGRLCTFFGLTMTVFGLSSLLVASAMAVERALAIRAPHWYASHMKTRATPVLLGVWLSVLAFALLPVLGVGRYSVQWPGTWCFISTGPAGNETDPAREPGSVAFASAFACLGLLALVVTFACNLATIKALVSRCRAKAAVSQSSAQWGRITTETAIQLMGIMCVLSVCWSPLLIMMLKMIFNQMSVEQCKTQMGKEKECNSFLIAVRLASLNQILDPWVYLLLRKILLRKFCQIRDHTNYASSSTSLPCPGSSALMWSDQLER
Protocol: (§1) The pcDNA-DEST47-hEP1, pcDNA-DEST47-hEP2, pcDNA-DEST47-hEP3, pcDNA-DEST47-hEP4, pcDNA-DEST47-mEP1, pcDNA-DEST47-mEP2, pcDNA-DEST47-mEP3, and pcDNA-DEST47-mEP4 produced in (11) above (10 μg each) were each introduced into 293FT cells, using Lipofectamin 2000. On the following day, the cells were washed with HBSS, and were then removed from the cell culture dish using an enzyme-free cell dissociation buffer. The cells were then recovered by centrifugation. The thus recovered cells are referred to as 293FT cells transiently expressing EP.
(§2) The binding test of the anti-EP4 antibody of the present invention and the 293FT transiently expressing EP cells was carried out with a flow cytometer according to the method described in (6) above. 293FT cells (5×10⁵ cells) that transiently expressed each of 8 types of PGE₂ receptor subtypes were used. As a primary antibody, 1 μg of the anti-EP4 antibody NBG016-mAb14 or NBG016-mAb21, or a mouse isotype control antibody (manufactured by BioRegend) was used. As a secondary antibody, a PE-labeled anti-mouse IgG antibody was used.

[2] = biological target: T2, mouse EP1 with Cycle 3 GFP at the C-terminus, on 293FT cells (mouse, UniProt P35375 1-405); test: as above
T2 construct: whole, on cells; also called mEP1; pcDNA-DEST47-mEP1; not shown: Cycle 3 GFP from the pcDNA-DEST47 vector
T2 sequence (looked up): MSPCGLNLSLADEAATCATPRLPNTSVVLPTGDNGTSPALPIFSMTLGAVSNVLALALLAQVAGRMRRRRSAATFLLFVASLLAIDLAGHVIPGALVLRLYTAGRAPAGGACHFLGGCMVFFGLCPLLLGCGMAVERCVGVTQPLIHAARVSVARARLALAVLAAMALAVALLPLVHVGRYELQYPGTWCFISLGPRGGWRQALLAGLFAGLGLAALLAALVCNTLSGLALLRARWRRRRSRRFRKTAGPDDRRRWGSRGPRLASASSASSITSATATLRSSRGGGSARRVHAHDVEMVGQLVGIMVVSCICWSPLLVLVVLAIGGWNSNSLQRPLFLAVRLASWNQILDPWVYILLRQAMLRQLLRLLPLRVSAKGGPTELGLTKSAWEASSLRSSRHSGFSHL
Protocol: as §1, §2

[3] = biological target: T3, human EP1 with Cycle 3 GFP at the C-terminus, on 293FT cells (human, UniProt P34995 1-402); test: as above
T3 construct: whole, on cells; also called hEP1; pcDNA-DEST47-hEP1; not shown: Cycle 3 GFP from the pcDNA-DEST47 vector
T3 sequence (looked up): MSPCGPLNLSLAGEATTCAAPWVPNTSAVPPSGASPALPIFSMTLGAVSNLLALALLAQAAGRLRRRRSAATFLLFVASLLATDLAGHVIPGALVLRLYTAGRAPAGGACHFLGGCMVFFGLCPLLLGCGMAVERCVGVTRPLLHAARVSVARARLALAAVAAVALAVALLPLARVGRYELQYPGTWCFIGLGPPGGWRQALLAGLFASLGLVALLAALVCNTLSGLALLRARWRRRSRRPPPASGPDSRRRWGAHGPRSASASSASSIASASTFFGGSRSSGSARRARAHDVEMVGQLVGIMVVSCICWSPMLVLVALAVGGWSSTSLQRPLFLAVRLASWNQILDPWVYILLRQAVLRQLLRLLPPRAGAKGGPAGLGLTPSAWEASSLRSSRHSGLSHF
Protocol: as §1, §2

[4] = biological target: T4, mouse EP4 with Cycle 3 GFP at the C-terminus, on 293FT cells (mouse, UniProt P32240 1-513); test: as above
T4 construct: whole, on cells; also called mEP4; pcDNA-DEST47-mEP4; not shown: Cycle 3 GFP from the pcDNA-DEST47 vector
T4 sequence (P32240 whole entry): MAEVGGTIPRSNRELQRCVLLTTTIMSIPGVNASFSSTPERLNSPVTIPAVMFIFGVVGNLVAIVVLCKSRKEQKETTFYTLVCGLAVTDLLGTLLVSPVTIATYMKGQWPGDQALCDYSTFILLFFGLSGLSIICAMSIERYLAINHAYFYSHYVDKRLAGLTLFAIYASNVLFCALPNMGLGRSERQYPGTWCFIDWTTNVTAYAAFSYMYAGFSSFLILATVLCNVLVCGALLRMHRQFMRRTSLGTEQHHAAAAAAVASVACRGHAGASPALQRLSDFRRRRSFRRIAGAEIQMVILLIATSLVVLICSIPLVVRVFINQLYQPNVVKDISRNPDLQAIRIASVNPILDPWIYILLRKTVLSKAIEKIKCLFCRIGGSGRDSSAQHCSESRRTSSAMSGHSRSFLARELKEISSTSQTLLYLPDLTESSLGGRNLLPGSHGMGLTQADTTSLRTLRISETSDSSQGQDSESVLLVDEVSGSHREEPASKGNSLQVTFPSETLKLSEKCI
Protocol: as §1, §2

[5] = biological target: T5, mouse EP2 with Cycle 3 GFP at the C-terminus, on 293FT cells (mouse, UniProt Q62053 1-362); test: as above
T5 construct: whole, on cells; also called mEP2; pcDNA-DEST47-mEP2; not shown: Cycle 3 GFP from the pcDNA-DEST47 vector
T5 sequence (Q62053 whole entry): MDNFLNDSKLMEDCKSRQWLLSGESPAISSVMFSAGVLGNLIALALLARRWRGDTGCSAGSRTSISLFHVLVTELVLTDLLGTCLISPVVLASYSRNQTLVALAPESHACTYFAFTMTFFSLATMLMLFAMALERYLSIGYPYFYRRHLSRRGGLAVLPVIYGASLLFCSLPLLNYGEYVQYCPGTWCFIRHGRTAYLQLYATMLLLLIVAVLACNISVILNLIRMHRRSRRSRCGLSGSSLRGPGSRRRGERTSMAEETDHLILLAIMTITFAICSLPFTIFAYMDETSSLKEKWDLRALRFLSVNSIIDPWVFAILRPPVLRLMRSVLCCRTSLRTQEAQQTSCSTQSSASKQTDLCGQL
Protocol: as §1, §2

[6] = biological target: T6, human EP2 with Cycle 3 GFP at the C-terminus, on 293FT cells (human, UniProt P43116 1-358); test: as above
T6 construct: whole, on cells; also called hEP2; pcDNA-DEST47-hEP2; not shown: Cycle 3 GFP from the pcDNA-DEST47 vector
T6 sequence (P43116 whole entry): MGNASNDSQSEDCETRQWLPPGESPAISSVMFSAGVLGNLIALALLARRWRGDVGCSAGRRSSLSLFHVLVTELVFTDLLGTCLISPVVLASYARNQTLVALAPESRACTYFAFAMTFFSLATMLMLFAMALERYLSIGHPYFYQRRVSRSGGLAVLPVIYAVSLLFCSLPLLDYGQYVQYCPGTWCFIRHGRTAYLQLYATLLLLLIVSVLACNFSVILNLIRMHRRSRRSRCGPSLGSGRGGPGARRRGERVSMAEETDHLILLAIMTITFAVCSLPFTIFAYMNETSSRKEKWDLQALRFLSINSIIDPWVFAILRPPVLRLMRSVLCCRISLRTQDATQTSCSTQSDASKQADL
Protocol: as §1, §2

[7] = biological target: human EP4 with V5 and 6xHIS tags at the C-terminus, on the CHO cell line stably expressing human EP4 (human, UniProt P35408 1-488); test: cell-based or functional assay
Sequence of human EP4 with V5 and 6xHIS tags at the C-terminus, on the CHO cell line stably expressing human EP4 (P35408 whole entry): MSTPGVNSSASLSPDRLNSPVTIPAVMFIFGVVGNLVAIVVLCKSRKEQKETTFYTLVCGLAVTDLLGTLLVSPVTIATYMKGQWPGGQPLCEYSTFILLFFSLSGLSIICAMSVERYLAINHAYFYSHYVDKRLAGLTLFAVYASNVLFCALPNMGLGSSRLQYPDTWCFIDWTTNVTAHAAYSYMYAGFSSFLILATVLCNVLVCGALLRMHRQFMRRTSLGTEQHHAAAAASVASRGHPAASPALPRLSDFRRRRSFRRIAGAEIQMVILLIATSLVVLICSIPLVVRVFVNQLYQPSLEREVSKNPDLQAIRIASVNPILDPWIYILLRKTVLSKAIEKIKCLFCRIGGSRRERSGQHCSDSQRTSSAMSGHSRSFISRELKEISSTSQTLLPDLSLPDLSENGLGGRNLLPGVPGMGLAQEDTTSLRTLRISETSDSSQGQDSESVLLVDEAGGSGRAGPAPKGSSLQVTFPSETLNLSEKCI

B1: NBG016-mAb9 (antibody, mouse IgG1, kappa, V domains shown)
VH: QVQLKESGPGLVAPSQSLSITCTVSGFSLSSYTIHWVRQPPGRGLEWLGVIWAGGSTNYNSALMSRLRISKDTSRSQVFLKVNSLQTDDSAIYYCARDDFGYGFAYWGQGTLVTVSA
VL: DVLMTQTPLSLPVSLGDQASISCRSSQSLVHTTGNTYLEWYLQKPGQSPKLLIYKISRRFSGVPDRFSGSGSGTDFTLRISRVEAADLGIYYCFQGSHIPPTFGAGTKLERKR
notes: Mouse IgG1, kappa, purified from hybridoma supernatant; the recombinant antibody (293FT supernatant) was expressed from the same genes; The entries may carry a signal peptide; also called recombinant antibody NBG016-mAb9
- binding result [1]: no binding
- binding result [2]: no binding
- binding result [3]: no binding
- binding result [4]: no binding
- binding result [5]: no binding
- binding result [6]: no binding
- IC50 of inhibition of PGE2-induced cAMP production in the CHO cell line stably expressing human EP4 (1.5×10^-10 M PGE2) [7]: 4.6 µg/mL and ~28.8 nM

B2: mouse IgG1 antibody NBG016-mAb21 (antibody)
heavy: EIQLQQSGPELVKPGASVKVSCKASGFPFSTYNIYWVIQSHGKSLEWIGYIDPYNGGTSYNQKFRGKATLTVDKSSSTAYMHLNSLTSEDSAVYYCARRWYTYDGDWFAYWGQGTLVTVSSAKTTPPSVYPLAPGSAAQTNSMVTLGCLVKGYFPEPVTVTWNSGSLSSGVHTFPAVLQSDLYTLSSSVTVPSSPRPSETVTCNVAHPASSTKVDKKIVPRDCGCKPCICTVPEVSSVFIFPPKPKDVLTITLTPKVTCVVVDISKDDPEVQFSWFVDDVEVHTAQTQPREEQFNSTFRSVSELPIMHQDWLNGKEFKCRVNSAAFPAPIEKTISKTKGRPKAPQVYTIPPPKEQMAKDKVSLTCMITDFFPEDITVEWQWNGQPAENYKNTQPIMNTNGSYFVYSKLNVQKSNWEAGNTFTCSVLHEGLHNHHTEKSLSHSPGK
light: DIKMTQSPSSMYVSLGERVTITCKASQDINRYLSWFQQKPGKSPKTLIYRANRMLDGVPSRFSGSGSGQDYSLTISSLEYEDMGNYYCLQYDEFPFTFGSGTKLEIKRADAAPTVSIFPPSSEQLTSGGASVVCFLNNFYPKDINVKWKIDGSERQNGVLNSWTDQDSKDSTYSMSSTLTLTKDEYERHNSYTCEATHKTSTSPIVKSFNRNEC
- IC50 of inhibition of PGE2-induced cAMP production in the CHO cell line stably expressing human EP4 (1.5×10^-10 M PGE2) [7]: 1.1 µg/mL and ~6.9 nM

B3: NBG016-mAb14 (antibody, V domains shown)
VH: EIQLQQSGPELVKPGASVKVSCKASGFPFSTYNIYWVIQSHGKRLEWIGYIDPYNGGTSYNQKFRGKATLTVDKSSSTAYMHLNRLTSEDSAVYYCARRWYTYDGDWFAYWGQGTLVTVSA
VL: DIKMTQSPSSMYVSLGERVTITCKASQDINRYLSWFQQKPGKSPKTLIYRANRLLDGVPSRFSGSGSGLDYSLTISSLEYEDMGNYYCLQYDEFPFTFGSGTKLEIKR
- IC50 of inhibition of PGE2-induced cAMP production in the CHO cell line stably expressing human EP4 (5×10^-11 M PGE2) [7]: 0.15 µg/mL and ~1 nM

B4: NBG016-mAb21 (antibody, mouse IgG2a)
heavy: EIQLQQSGPELVKPGASVKVSCKASGFPFSTYNIYWVIQSHGKSLEWIGYIDPYNGGTSYNQKFRGKATLTVDKSSSTAYMHLNSLTSEDSAVYYCARRWYTYDGDWFAYWGQGTLVTVSAAKTTAPSVYPLAPVCGDTTGSSVTLGCLVKGYFPEPVTLTWNSGSLSSGVHTFPAVLQSDLYTLSSSVTVTSSTWPSQSITCNVAHPASSTKVDKKIEPRGPTIKPCPPCKCPAPNLLGGPSVFIFPPKIKDVLMISLSPIVTCVVVDVSEDDPDVQISWFVNNVEVHTAQTQTHREDYNSTLRVVSALPIQHQDWMSGKEFKCKVNNKDLPAPIERTISKPKGSVRAPQVYVLPPPEEEMTKKQVTLTCMVTDFMPEDIYVEWTNNGKTELNYKNTEPVLDSDGSYFMYSKLRVEKKNWVERNSYSCSVVHEGLHNHHTTKSFSHSPGK
light: B2 light
notes: Mouse IgG2a, kappa, purified from hybridoma supernatant; the recombinant antibody was expressed from the same genes; The entries may carry a signal peptide; also called recombinant antibody NBG016-mAb21; anti-EP4 antibody
- binding result [1]: no binding (tested: 1 µg per 5×10^5 cells)
- binding result [2]: no binding (tested: 1 µg per 5×10^5 cells)
- binding result [3]: no binding (tested: 1 µg per 5×10^5 cells)
- binding result [4]: no binding (tested: 1 µg per 5×10^5 cells)
- binding result [5]: no binding (tested: 1 µg per 5×10^5 cells)
- binding result [6]: no binding (tested: 1 µg per 5×10^5 cells)

Source: patent publication US20160075780A1 (NB HEALTH LABORATORY, published 2016)
